Reference: article PMC11898274, “Interleukin-34 orchestrates bone formation through its binding to bone morphogenic proteins” (Theranostics, 2025)
Each block holds one binder with its values, some of them ahead of it.

Columns and labels:
[1] = target: T1, Recombinant human bone morphogenetic protein 4 (BMP4) (human, UniProt P12644 293-408); assay: SPR
T1 chain: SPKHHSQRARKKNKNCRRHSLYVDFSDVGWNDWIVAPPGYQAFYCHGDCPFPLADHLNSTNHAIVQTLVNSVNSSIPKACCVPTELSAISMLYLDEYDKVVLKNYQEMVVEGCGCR

[2] = target: T2, Recombinant human bone morphogenetic protein 2 (BMP2) (human, UniProt P12643 283-396); assay: SPR
T2 chain: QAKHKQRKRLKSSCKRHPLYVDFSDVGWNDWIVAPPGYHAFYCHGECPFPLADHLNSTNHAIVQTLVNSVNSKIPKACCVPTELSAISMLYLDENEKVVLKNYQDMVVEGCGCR

[3] = target: T3, Recombinant human bone morphogenetic protein 7 (BMP7) (human, UniProt P18075 293-431); assay: SPR
T3 chain: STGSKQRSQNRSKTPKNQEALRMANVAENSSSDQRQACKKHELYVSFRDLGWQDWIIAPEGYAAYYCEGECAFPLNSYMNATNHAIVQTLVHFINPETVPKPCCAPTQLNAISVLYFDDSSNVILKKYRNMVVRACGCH

[4] = target: T4, Recombinant human interleukin-34 (IL34) (human, UniProt Q6ZMJ4 21-242); assay: SPR; BMP2, BMP4 or BMP7 immobilised (1500-2300 RU) on CM5-S chip by amine coupling at pH 4.5; IL34 injected in one cycle titration (12.5-200 nM, 60 s, 100 µL/min), 600 s dissociation; T200, 25 °C, PBS pH 7.4 with 0.05% P20; bivalent fitting model; conditions: both partners purified
T4 construct: Interleukin-34, human, recombinant; source: bought: R&D Systems
T4 sequence (looked up): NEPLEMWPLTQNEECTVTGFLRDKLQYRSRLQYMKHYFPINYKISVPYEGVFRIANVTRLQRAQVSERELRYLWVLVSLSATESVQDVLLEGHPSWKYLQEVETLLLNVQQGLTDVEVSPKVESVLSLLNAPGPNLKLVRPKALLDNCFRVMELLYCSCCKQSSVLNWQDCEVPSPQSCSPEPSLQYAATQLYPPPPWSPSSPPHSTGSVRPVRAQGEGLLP

[5] = target: T4, Recombinant human interleukin-34 (IL34); assay: SPR; receptors captured on immobilized anti-human Fc; IL34 injected (18.75, 37.5, 75, 150, 300 nM); T200, 25 °C, PBS pH 7.4 with 0.05% P20; steady-state fitting model; conditions: both partners purified

B1: Recombinant human interleukin-34 (IL34) (ligand)
chain: T4 sequence (looked up)
koff [1]: 0.0467 s⁻¹
koff [2]: 0.0229 s⁻¹
koff [3]: 0.0561 s⁻¹

B2: Recombinant human bone morphogenetic protein 2 (BMP2) (ligand, UniProt P12643 283-396, looked up)
chain: T2 chain
notes: Bone morphogenetic protein 2, human, recombinant; source: bought: R&D Systems
Kd [4]: 363 nM

B5: Recombinant human bone morphogenetic protein 4 (BMP4) (ligand, UniProt P12644 293-408, looked up)
chain: T1 chain
notes: Bone morphogenetic protein 4, human, recombinant; source: bought: R&D Systems
Kd [4]: 426 nM

Continued, values first:

Kd [4]: 922 nM
B3: Recombinant human bone morphogenetic protein 7 (BMP7) (ligand, UniProt P18075 293-431, looked up)
chain: T3 chain
notes: Bone morphogenetic protein 7, human, recombinant; source: bought: R&D Systems

binding result [5]: binds
B4: Human Activin RIIB receptor (ActRIIB) (Fc fusion, UniProt Q13705 19-137, looked up)
chain: SGRGEAETRECIYYNANWELERTNQSGLERCEGEQDKRLHCYASWRNSSGTIELVKKGCWLDDFNCYDRQECVATEENPQVYFCCCEGNFCNERFTHLPEAGGPEVTYEPPPTAPTLLT
notes: Activin receptor type-2B, human recombinant; source: bought: R&D Systems
